In the DeepSol protein solubility set:

test: soluble on expression in E. coli; label from the status in PepcDB or PDB records

Soluble on expression in E. coli, not soluble:
MGSDKIHHHHHHMATHNHTLTMEWIVDRTRTVYSLPYFYERLNEAINHPRSSIDDVARIIIDDQGLTARILKLANSPMFGFFSKVDSISKAVTIIGTQQLRDLALAASVMDVFKDIPRELMDMVLFWRHSIACGIVARNLAIYLRESNVERFFVAGILHDVGQLVMCTAIPEKVSEVLARNRLESRFLDATERDALGFDHAALGGALLRAWKIPATINEPVAYHHEPGKAEQFSLEVSIIHLADIICQALGYGASGEGGVPLLDPAAWDRLGVPVSILTTIVKQSEPQVEETFAILVEG
MGSDKIHHHHHHMATTLFIQRGDIAAWLADTAATHTVYAPLRDKTGVRFHRLCAQDAAAQTQALELDRQAQTPPKNVLLPACETLLEFSYAKQEDGSTSLDVQPVMPQGAVLLFGPRPCDARAFTVFDRVYDAGRGKDPYYTARRAATVVASVVCTRPEQSCFCTAVGGAPDDTEGSDILFTPVQDGFIVRPLTQAAEAVLRHPLFTEAAHREEEAADVCAAARAAVPCAPADFTAAPEPVAALFDDMEFWQSVTAKCLSCGACTYLCPTCYCFNITDESNGLEGRRLRTWDNCMSFQFTLEGSGHNPRPTKAHRYRNRIGHKFSYYPRIHDGALSCVGCGRCISSCPVTMDIRRIVHSAMQRAQCATPEQAHE
MGSDKIHHHHHHMAVILFDIDGTLIDSTDQMTEAIHLAMEDMPHLVKPSKASVQSSYGLAGNAFWRKAIPDASENDIKEIRRKRHHHLEQTMQNQDVLFDGIRELLEQLTNQGHIVSTASNCGVHYLNLVLDSQNIRSYFTSPKCLESVNGKQKADILAAHREEFSEVDYLMVGDRSSDVEAARLQNMPVAICCFGFGTEQEWKTADHQLETPLDLLKFV
MGSDKIHHHHHHMAVQDLLSQDEIDALLHGVDDGMVQTDIASEPGSVKSYDLTSQDRIVRGRMPTLEMINERFARYTRISMFNLLRRSADVAVGGVQVMKFGEYVHSLYVPTSLNLAKIKPLRGTALFILDAKLVFKLVDNFFGGDGRHAKIEGREFTPTELRVVRMVLDQAFIDLKEAWQAIMEVNFEYINSEVNPAMANIVGPSEAVVISTFHIELDGGGGDLHVTMPYSMIEPIREMLDAGFQSDLDDQDERWVNALKEDVLDVNVPLTTTIAQRQLPLRDILHMRPGDVIPVELSDTLVLRANGVPSFKVKLGSHKGKMALQVIEPIARR
MGSDKIHHHHHHMAWHKLGRVYCADGFADWAQHSFMTPVPVQMSADVIRLYGGMRDDAGISRIGWVDLDAHNPLRVIAVCDAPALDLGEPGMFDDNGVILGDVIRTSEAELRMYYVGFQLVEKAKFLAFTGVAISDASGTRFDRVFPTPVLDRAPEALFINALHSIAQTETGFRAWISCGQRWQDINGRIYPQYNCWTVPSEDGLHFDMRDAVKIMDVNEAEYRIGRPRANRLADGSFELRVTSDTFDKHYSSHLAHSKDGIVFQRSDEVELPRGAPGDWDAEMTCYPARIDTPTGRSYLFYNGNNMGETGVGVAEWQAEA
MGSDKIHHHHHHMAWTSAQGATAAMTVVDGVTGLPIAGATVVSAGAERVTANDGTFMMPMDGPDGGIAMTVRAPGYARLETVANGTTPRAIALAPLLAEEAARMGFDEVQFDYLRFPDAPGLRFSETNTSARRVAAITGFLSAARDRLRHYNIYLSADIFGYVCWNLDDTAIGQQLETLVVLSTTFHRCCIRPVSPSGWRRSGATSHPSRRGLP
MGSDKIHHHHHHMAYEQFAYVYDELMQDVPYPEWVAWVLEQVEPGKRIADIGCGTGTATLLLADHYEVTGVDLSEEMLEIAQEKAMETNRHVDFWVQDMRELELPEPVDAITILCDSLNYLQTEADVKQTFDSAARLLTDGGKLLFDVHSPYKMETLFNGKTYATHAEQSSYIWFADPGEEPLSVVHELTFFIEGEDGRYDRVDETHHQRTYPPEQYITWLREAGFRVCAVTGDFKSDAPTETAERIFFVAEKI
MGSDKIHHHHHHMCQHSIANIDINKDYDESLGTEEVHYQSFSRMAAFFGRDMQAHRHDRYFQMHYLDTGQIELQLDDHRYSVQAPLFVITPPSVPHAFITESDSDGHVLTVHEELIWPLLEVLYPGTRETFGLPGICLSLADKPDELAALAHYWQLIRRESTAQLPGREHTLALLAQAVFTLLLRNAKLDDHAASGMRGELKLFQRFNQMIDSHYHQHWTVPDYARELHLTESRLTDICRRFANRPPKRLIFDRQLREAKRLLLFSDSAVNEIAWQLGFKDPAYFARFFSRQVGCSPSSYRAQKVPVS
